One may read the stoichiometry N as the number of molecules, sites or subunits per partner or assembly.

This note sets out measurements from article PMC3156243, “Properties and Crystal Structure of Methylenetetrahydrofolate Reductase from Thermus thermophilus HB8” (PLoS ONE, 2011).

The data set concerns the molecule itself. The data set can be described thus: SEC-MALS; as-purified MTHFR; HPLC on TSK-gel G3000SWxl with multi-angle light scattering and refractive index detectors; 50 mM Tris-HCl pH 6.8, 0.2 M NaCl; 0.5 ml/min; 0.1 mg protein/run. A general note: SEC sorts molecules by how far they enter the pores of the column.

B1: Methylenetetrahydrofolate reductase (MTHFR) from Thermus thermophilus HB8, C-terminally hexa-His-tagged wildtype (enzyme, UniProt Q5SLG6 1-296, looked up)
chain: MKIRDLLKARRGPLFSFEFFPPKDPEGEEALFRTLEELKAFRPAFVSITYGAMGSTRERSVAWAQRIQSLGLNPLAHLTVAGQSRKEVAEVLHRFVESGVENLLALRGDPPRGERVFRPHPEGFRYAAELVALIRERYGDRVSVGGAAYPEGHPESESLEADLRHFKAKVEAGLDFAITQLFFNNAHYFGFLERARRAGIGIPILPGIMPVTSYRQLRRFTEVCGASIPGPLLAKLERHQDDPKAVLEIGVEHAVRQVAELLEAGVEGVHFYTLNKSPATRMVLERLGLRPASGQP
notes: Methylenetetrahydrofolate reductase (MetF homologue) of Thermus thermophilus HB8, clone TTHA0327, wildtype gene amplified by PCR into pET23; the original stop codon was mutated to Ala before the C-terminal hexa-His tag; One polypeptide in two cofactor states: as purified about one FAD per dimer (apo- plus holo-subunit), after FAD treatment one FAD per subunit; The stop codon is replaced by Ala, …
Regarding B1, the “stoichiometry N” value came to 2.
